Source: patent US20080292620A1 (Novartis, published 2008)
Where a chain is given by its changes, count along the chain named.

Tests used:
rat PRLR ECD = target: T1, rat PRLR ECD (rat, UniProt P05710 20-229); experiment: Biacore SPR, antibody covalently immobilized on CM4 chip
T1 construct: extracellular domain
T1 sequence (looked up): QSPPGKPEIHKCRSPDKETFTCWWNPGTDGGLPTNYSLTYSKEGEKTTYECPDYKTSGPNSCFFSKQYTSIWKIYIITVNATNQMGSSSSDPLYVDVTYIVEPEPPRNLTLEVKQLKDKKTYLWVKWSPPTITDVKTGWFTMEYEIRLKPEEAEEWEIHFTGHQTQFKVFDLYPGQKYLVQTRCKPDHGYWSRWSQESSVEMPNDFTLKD
Procedure: (§1) In order to compare rat and mouse cross reactivity using covalently immobilized antibodies, a CM4 chip was coupled with he.06.642-2 and he.06.275-4 antibodies via standard EDC-NHS amine coupling chemistries according to the recommended protocol from Biacore® Inc. The PRLR ECD injections were performed at five concentrations in a three fold titration series starting at 111 nM and going down to 1.37 nM. Regeneration was performed with Glycine pH3.0. The affinity of all of the HE variants of XHA.06.642 and XHA.06.275 are very similar to the affinity of the parental chimeric antibody. Antibody he.06.642-2 binds to human, mouse and rat PRLR with equivalent affinity.

[1] = target: T2, recombinant extracellular domain (ECD) of the human prolactin receptor (PRLR) (human, UniProt P16471 25-234); experiment: Biacore SPR, antibody covalently immobilized on CM4 chip, PRLR ECD 111 to 1.37 nM
T2 construct: also called PRLR ECD; Human PRLR; not shown: His tag
T2 sequence: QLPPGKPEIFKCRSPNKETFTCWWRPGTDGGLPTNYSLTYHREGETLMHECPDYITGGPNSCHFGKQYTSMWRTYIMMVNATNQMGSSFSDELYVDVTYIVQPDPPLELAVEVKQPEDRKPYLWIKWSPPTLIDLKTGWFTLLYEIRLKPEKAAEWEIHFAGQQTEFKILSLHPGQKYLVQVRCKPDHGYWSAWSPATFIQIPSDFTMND

cynomolgus PRLR ECD [2] = target: T3, cynomolgus PRLR ECD (cynomolgus, UniProt A0A2K5WXK1 25-234); experiment: as above
T3 construct: extracellular domain; also called Cyno PRLR
T3 sequence: T2 sequence with I76V, A110T, I125M, I158T, T207I

murine PRLR ECD [3] = target: T4, murine PRLR ECD (mouse, UniProt Q08501 20-229); experiment: Biacore SPR, antibody covalently immobilized on CM4 chip, PRLR ECD 111 to 1.37 nM; same run as N2: KD about 17.6 uM, far above the top concentration of 111 nM, which the text calls not binding effectively
T4 construct: extracellular domain; also called Mouse PRLR
T4 sequence (looked up): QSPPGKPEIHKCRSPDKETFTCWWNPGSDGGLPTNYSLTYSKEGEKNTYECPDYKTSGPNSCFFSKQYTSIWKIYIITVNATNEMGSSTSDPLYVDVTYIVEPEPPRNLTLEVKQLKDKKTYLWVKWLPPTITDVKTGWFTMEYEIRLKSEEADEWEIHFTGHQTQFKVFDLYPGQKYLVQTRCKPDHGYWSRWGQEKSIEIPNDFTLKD
Procedure: as §1

[4] = target: T2, recombinant extracellular domain (ECD) …; experiment: Biacore SPR, antibody captured on Protein A/G, kinetic titration of PRLR ECD, 1:1 Langmuir
Procedure: (§2) Affinity of the chimerized and Human Engineered™ antibodies determined by Biacore analysis. Briefly, a CM5 sensor chip (Biacore) immobilized with Protein A/G (Pierce) via NHS/EDC was used to capture approximately 600 RU of antibody on the chip surface. Five concentrations of PRLR ECD beginning at 5 ug/mL (185 nM) and serially diluted at 5× dilution to 0.3 nM were injected from lowest to highest concentration in the kinetic titration injection mode, and 15 minutes of dissociation data was collected. The experiments were double-referenced, i.e. an adjacent flow cell response was subtracted automatically, and the response from a buffer injection experiment was subtracted from the experimental data set. Kinetic and derived parameters (kₐ, kd and KD) were determined by fitting to a 1:1 Langmuir model using BiaEval software customized to the kinetic titration injection mode. Affinity measurements of both chimeric and all Human Engineered™ antibodies against human and cynomolgus PRLR ECD are summarized in Table 9 and Table 10.

cynomolgus PRLR ECD [5] = target: T3, cynomolgus PRLR ECD; experiment: as above
Procedure: as §2

murine PRLR ECD [6] = target: T4, murine PRLR ECD; experiment: Biacore SPR, antibody covalently immobilized on CM4 chip, PRLR ECD 111 to 1.37 nM; same run as N2: antibody covalently immobilized on CM4, PRLR ECD 111 to 1.37 nM; very weak fitted binding
Procedure: as §1

Kd [1]: 1.3 nM | Kd (cynomolgus PRLR ECD [2]): 6.4 nM | Kd (murine PRLR ECD [3]): 17600 nM | Kd [4]: 0.52 nM | Kd (cynomolgus PRLR ECD [5]): 1.7 nM | koff (murine PRLR ECD [6]): 0.037 s⁻¹ | kon (murine PRLR ECD [6]): 2100 M⁻¹ s⁻¹
B1: he.06.275-4 (antibody, V domains shown)
VH: QVQLQESGPGLVKPSQTLSLTCTVSGYSITSDYAWNWIRQFPGKGLEWMGYISYSGSTSYNPSLKSRITISRDTSKNQFSLQLNSVTAADTAVYFCARDYGYVFDYWGQGTTLTVSS
VL: DVQITQSPSSLSASPGDRITLTCRASKNIYKYLAWYQEKPGKANKLLIYSGSTLHSGIPSRFSGSGSGTDFTLTISSLQPEDFAMYYCQQHNDYPYTFGQGTKLEIK
notes: Human Engineered
binding result (rat PRLR ECD): no binding (tested: PRLR ECD up to 111 nM)
